From paper PMC13233820, “Recruitment of Mre11 to recombination sites during meiosis” (Nature Communications, 2026) come the findings set out here.

The subject of one assay is Mer2. The assay can be described thus: Co-immunoprecipitation of Mer2 and Mre11 from meiotic extracts. It counts as binding, Saccharomyces cerevisiae. The note with it: Supplementary Fig. 6i. As for the experimental part:
Meiotic cultures were collected at 4 h after transferring to SPM, washed once in ice-cold 1 × PBS containing 1 mM PMSF, following which, they were transferred to 1.5 ml screw-cap tubes and were either snap frozen in liquid nitrogen or processed directly. […] 900 µL of 0.5 mm zirconium beads were added to the cell pellet, and cells were lyzed in a Precellys bead beater at 7200 rpm for 12 × 15 seconds while chilling the tubes for 2 min on ice between each cycle. Cell extract was collected by poking a hole at the bottom of the tubes while placing the tubes on top of another 1.5 ml tubes and centrifuging at 800 × g for 1 min at 4 °C. Beads were washed with 500 µl of IP buffer and collected in the same tube. Cell lysate was spun again at 800 g for 5 min at 4 °C and supernatant was transferred to 15 mL tubes. Sonication was performed three times in ice in Bioruptor Plus at intensity (M) in a 30 s ON / 30 s OFF cycle for 15 min each time. The lysate was centrifuged at 15.000 g at 4 °C for 10 min and the supernatant (~ 800 µl) was transferred to new 1.5 ml tubes. 80 µL (10%) was collected as Input fraction and snap frozen. 1 µL of mouse monoclonal anti-myc primary antibody was added to each tube, and tubes were rotated overnight at 5 rpm at 4 °C. The following day, Dynabeads Protein G (30 µl per tube) were added to Protein LoBind tubes and washed two times with 1 mL IP buffer containing 1 mM PMSF using DynaMag2. The lysates with the antibody were transferred to the tubes containing Dynabeads and were rotated for 3-4 hours at 5 rpm at 4 °C, following which, the Dynabeads were collected and washed four times with 1 ml IP buffer containing 1 mM PMSF. Finally, 60 µL IP buffer and 20 µL 4 × Lammelli buffer was added to the tubes and incubated for 5 mins at 95 °C while shaking at 1000 rpm. TCA extraction was performed on the input fractions by adding 8 µL 100 % TCA (final 10 % TCA) and incubating on ice for 30 mins. Precipitated proteins were solubilized in 40 µL 1 × Laemmli sample buffer incubated for 5 mins at 95 °C. Immunoblotting was performed using the protocol described below.

The next assay has as its system spores of yeast strains. Nature of the assay: Spore viability assay. It counts as cell-based, Saccharomyces cerevisiae. The settings on record: Fig. 7c. The method, then: For the spore viability assay, a small patch of the diploid strain was incubated in sporulation media (2% potassium acetate) at 30 °C, 250 rpm for two days. After two days, 1 mL of sporulating culture was centrifuged, and all but 200 µL of supernatant was removed. To digest yeast cells, 2 µL of concentrated sporulation culture was mixed with 100 µL 1 M sorbitol and 1 µL 10 mg/ml zymolyase and incubated at 30 °C for 21 mins. 20 µL of digested cells were dropped on a YPD plate, left to dry for about 10 mins, and were micromanipulated using a tetrad dissector (MSM400, Singer Instruments). At least 20 tetrads were dissected for each assay, and spore viability was assessed by calculating the number of viable spores after 2 days of incubation at 30 °C.

The subject of assay [1] is supercoiled pUC19 plasmid DNA. The assay can be described thus: In vitro condensation assay of Mre11 (fluorescence microscopy). It counts as biochemical. The note with it: eGFP-tagged truncations with plasmid DNA. The method, then: Fig. 1 Mre11 and the MRX complex assemble DNA-dependent condensates in vitro. a, c Effect of the presence of plasmid DNA on condensation of (a) Alexa488-labeled Mre11 (n = 11 and 9 fields of view for reactions without and with DNA, respectively) and (c) eGFP-tagged MRX (n = 11 (- DNA) and 9 ( + DNA)). Experiments were performed without PEG. b, d Effect of DNase I, in the absence of PEG, on (b) Mre11 (n = 9 (no treatment) and 11 (DNase I)) and (d) MRX (n = 9 (no treatment) and 11 (DNase I)) condensates. Condensates were pre-assembled for 20 min with 5.7 nM pUC19 prior to challenge. Quantification represents total foci intensity (green) in a field of view and total number of foci per 1000 µm^2 (magenta). Foci intensity is normalized to the mean intensity of samples with DNA for (a, c) and untreated samples for (b, d). […] Quantification represents total foci intensity (green) in a field of view (normalized to the mean of + PEG images) and total number of foci per 1000 µm^2 (magenta). […]
Fig. 2 The C-terminal IDR of Mre11 is required for condensation. a AlphaFold2 predicted model of Mre11 (AF-P32829-F1-v4). […] Quantification represents total fluorescence intensity (green) in a field of view and total number of foci per 1000 µm^2 (magenta). […]

The next assay deals with pUC19 plasmid substrate. The assay can be described thus: Gel shift assay, plasmid DNA binding. The settings on record: 1 nM pUC19, 25 mM HEPES-HCl pH 7.5, 100 mM NaCl, 5 mM EDTA, 30 °C 30 min. The method, then: Proteins were diluted to their appropriate working concentrations in their respective storage buffers. […] Reactions were assembled at 30 °C for 30 mins and resolved in a 1% agarose (SeaKem LE Agarose, Lonza) at 60 V for 120 mins at 4 °C. Gels were stained with SYBR Gold Nucleic Acid Gel Stain (S11497, Invitrogen) for 40 mins and visualized with Amersham Typhoon biomolecular imager (Cytiva).

B1: Mre11-ΔC15: Mre11 lacking the C-terminal 15-residue α-helix (protein)
chain: MDYPDPDTIRILITTDNHVGYNENDPITGDDSWKTFHEVMMLAKNNNVDMVVQSGDLFHVNKPSKKSLYQVLKTLRLCCMGDKPCELELLSDPSQVFHYDEFTNVNYEDPNFNISIPVFGISGNHDDASGDSLLCPMDILHATGLINHFGKVIESDKIKVVPLLFQKGSTKLALYGLAAVRDERLFRTFKDGGVTFEVPTMREGEWFNLMCVHQNHTGHTNTAFLPEQFLPDFLDMVIWGHEHECIPNLVHNPIKNFDVLQPGSSVATSLCEAEAQPKYVFILDIKYGEAPKMTPIPLETIRTFKMKSISLQDVPHLRPHDKDATSKYLIEQVEEMIRDANEETKQKLADDGEGDMVAELPKPLIRLRVDYSAPSNTQSPIDYQVENPRRFSNRFVGRVANGNNVVQFYKKRSPVTRSKKSGINGTSISDRDVEKLFSESGGELEVQTLVNDLLNKMQLSLLPEVGLNEAVKKFVDKDEKTALKEFISHEISNEVGILSTNEEFLRTDDAEEMKALIKQVKRANSVRPTPPKENDETNFAFNGNGLDSFRSSNREVRTGSPDITQSHVDNESRITHISQAESSKPTSKPKRVRTATKKKIPAFSDSTVISDAENELGDNNDAQDDVDIDENDIIMVSTDEEDASYGLLNGRKTKTKTRPAASTKTASRRGKGRASRT
modifications: left off: Gal4 activation domain (from the vector pGAD-C1), end not stated, kept
notes: Mre11 lacking the C-terminal 15-residue α-helix
For the molecule B1, in the assay with Mer2 (Experiment 1), the “Normalized to WT Mer2 IP” value is 68.56.

B2: Mer2-EQEK (protein)
chain: MVARGRTDEISTDVSEANSEHSLMITETSSPFRSIFSHSGKVANAGALEASDKAILAWAGALELESMELRENSDKLIKVLNENSKTLCKSLNKFNQLLEQDAATNGNVKTLIKDLASQIENQLDKVSTAMLSKGDEKKTKSDSSYRQVLVEEISRYNSKITRHVTNKQHETEKSMRCTQEMLFNVGSQLEDVHKVLLSLSKDMHSLQTRQTALEMAFREKADHAYDRPDVSLNGTTLLHDMDEAHDKQRKKSVPPPRMMVTRSMKRRRSSSPTLSTSQNHNSEDNDDASHRLKRAARTIIPWEELRPDTLESEL
modifications: left off: V5, internal (after residue 248), kept
For the molecule B2, the “Normalized to WT Mer2 IP” value is 56.73 in the assay on Mer2 (Experiment 1) and 70.72 with Mer2 (Experiment 2).

B3: Mre11-myc (WT) (protein, UniProt P32829 1-692, looked up)
Double-strand break repair …: MDYPDPDTIRILITTDNHVGYNENDPITGDDSWKTFHEVMMLAKNNNVDMVVQSGDLFHVNKPSKKSLYQVLKTLRLCCMGDKPCELELLSDPSQVFHYDEFTNVNYEDPNFNISIPVFGISGNHDDASGDSLLCPMDILHATGLINHFGKVIESDKIKVVPLLFQKGSTKLALYGLAAVRDERLFRTFKDGGVTFEVPTMREGEWFNLMCVHQNHTGHTNTAFLPEQFLPDFLDMVIWGHEHECIPNLVHNPIKNFDVLQPGSSVATSLCEAEAQPKYVFILDIKYGEAPKMTPIPLETIRTFKMKSISLQDVPHLRPHDKDATSKYLIEQVEEMIRDANEETKQKLADDGEGDMVAELPKPLIRLRVDYSAPSNTQSPIDYQVENPRRFSNRFVGRVANGNNVVQFYKKRSPVTRSKKSGINGTSISDRDVEKLFSESGGELEVQTLVNDLLNKMQLSLLPEVGLNEAVKKFVDKDEKTALKEFISHEISNEVGILSTNEEFLRTDDAEEMKALIKQVKRANSVRPTPPKENDETNFAFNGNGLDSFRSSNREVRTGSPDITQSHVDNESRITHISQAESSKPTSKPKRVRTATKKKIPAFSDSTVISDAENELGDNNDAQDDVDIDENDIIMVSTDEEDASYGLLNGRKTKTKTRPAASTKTASRRGKGRASRTPKTDILGSLLAKKRK
modifications: myc tag
B3 gave a Visible spore colonies with spores of yeast strains (spores placed: 144 (WT), 80 (ΔC15), 88 (SIM), 80 (ΔC15+ SIM)) of 140. Further, the “Spore Viability” value with spores of yeast strains (visible spore colonies of spores placed) amounted to 97.22.

B4: Mre11-IDR: Mre11 disordered region alone (524-677) (protein, UniProt P32829 524-677, looked up, fragment)
chain: NSVRPTPPKENDETNFAFNGNGLDSFRSSNREVRTGSPDITQSHVDNESRITHISQAESSKPTSKPKRVRTATKKKIPAFSDSTVISDAENELGDNNDAQDDVDIDENDIIMVSTDEEDASYGLLNGRKTKTKTRPAASTKTASRRGKGRASRT
B4: the “Condensation of Mre11 truncations (in words)” value in assay [1] was “failed to form condensates”. In addition, in the assay with pUC19 plasmid substrate, the “DNA-binding activity (in words)” value is “reduced DNA binding as compared to the wild type or Mre11^ΔIDR”.
